According to patent US10442850:

What was measured:
[1] = target: A1/A3-C1-C2 part of thrombin-activated cFVIII-BDD (canine) (UniProt O18806); experiment: cell-based or functional assay
[2] = target: A1/A3-C1-C2 part of thrombin-activated human FVIII-BDD R1645H (human) (UniProt P00451); experiment: cell-based or functional assay
Chain of UniProt P00451 (P00451 20-391, chain 1 of 2): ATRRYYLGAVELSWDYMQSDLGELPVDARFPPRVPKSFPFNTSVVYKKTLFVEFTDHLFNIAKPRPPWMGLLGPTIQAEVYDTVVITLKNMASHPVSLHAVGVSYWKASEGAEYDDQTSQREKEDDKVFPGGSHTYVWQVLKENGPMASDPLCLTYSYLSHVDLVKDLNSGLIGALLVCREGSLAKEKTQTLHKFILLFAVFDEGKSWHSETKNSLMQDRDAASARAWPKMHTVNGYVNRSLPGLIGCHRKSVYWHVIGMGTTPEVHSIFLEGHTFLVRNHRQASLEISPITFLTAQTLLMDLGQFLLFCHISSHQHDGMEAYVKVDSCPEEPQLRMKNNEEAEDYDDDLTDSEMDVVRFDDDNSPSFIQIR
Chain of UniProt P00451 (P00451 1709-2351, chain 2 of 2): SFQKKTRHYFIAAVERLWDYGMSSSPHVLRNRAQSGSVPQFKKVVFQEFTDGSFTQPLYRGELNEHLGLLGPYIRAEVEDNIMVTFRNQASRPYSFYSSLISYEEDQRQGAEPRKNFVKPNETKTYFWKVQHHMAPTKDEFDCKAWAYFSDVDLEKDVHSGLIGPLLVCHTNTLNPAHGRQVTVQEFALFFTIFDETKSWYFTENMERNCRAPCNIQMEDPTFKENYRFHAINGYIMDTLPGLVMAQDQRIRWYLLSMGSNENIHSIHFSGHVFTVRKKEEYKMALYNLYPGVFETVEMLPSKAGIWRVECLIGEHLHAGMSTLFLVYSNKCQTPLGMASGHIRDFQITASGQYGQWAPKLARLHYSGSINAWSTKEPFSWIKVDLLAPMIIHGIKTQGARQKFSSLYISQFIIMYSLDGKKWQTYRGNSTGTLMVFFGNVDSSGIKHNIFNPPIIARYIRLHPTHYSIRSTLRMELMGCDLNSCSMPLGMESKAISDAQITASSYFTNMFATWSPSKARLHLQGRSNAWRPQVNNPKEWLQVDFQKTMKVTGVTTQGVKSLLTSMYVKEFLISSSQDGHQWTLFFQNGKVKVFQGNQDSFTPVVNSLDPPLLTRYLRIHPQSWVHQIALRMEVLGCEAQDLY

Chain of UniProt O18806 (O18806 20-385, chain 1 of 2): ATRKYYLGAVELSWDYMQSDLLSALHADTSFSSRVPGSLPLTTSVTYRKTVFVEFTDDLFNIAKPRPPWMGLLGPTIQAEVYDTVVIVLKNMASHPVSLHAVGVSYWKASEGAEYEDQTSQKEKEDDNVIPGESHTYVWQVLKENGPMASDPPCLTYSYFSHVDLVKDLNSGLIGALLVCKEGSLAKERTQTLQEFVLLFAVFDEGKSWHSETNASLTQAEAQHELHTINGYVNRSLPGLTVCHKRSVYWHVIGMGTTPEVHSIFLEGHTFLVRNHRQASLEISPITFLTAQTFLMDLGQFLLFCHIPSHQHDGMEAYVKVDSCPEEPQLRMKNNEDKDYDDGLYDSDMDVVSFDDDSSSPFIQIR
Chain of UniProt O18806 (O18806 1701-2343, chain 2 of 2): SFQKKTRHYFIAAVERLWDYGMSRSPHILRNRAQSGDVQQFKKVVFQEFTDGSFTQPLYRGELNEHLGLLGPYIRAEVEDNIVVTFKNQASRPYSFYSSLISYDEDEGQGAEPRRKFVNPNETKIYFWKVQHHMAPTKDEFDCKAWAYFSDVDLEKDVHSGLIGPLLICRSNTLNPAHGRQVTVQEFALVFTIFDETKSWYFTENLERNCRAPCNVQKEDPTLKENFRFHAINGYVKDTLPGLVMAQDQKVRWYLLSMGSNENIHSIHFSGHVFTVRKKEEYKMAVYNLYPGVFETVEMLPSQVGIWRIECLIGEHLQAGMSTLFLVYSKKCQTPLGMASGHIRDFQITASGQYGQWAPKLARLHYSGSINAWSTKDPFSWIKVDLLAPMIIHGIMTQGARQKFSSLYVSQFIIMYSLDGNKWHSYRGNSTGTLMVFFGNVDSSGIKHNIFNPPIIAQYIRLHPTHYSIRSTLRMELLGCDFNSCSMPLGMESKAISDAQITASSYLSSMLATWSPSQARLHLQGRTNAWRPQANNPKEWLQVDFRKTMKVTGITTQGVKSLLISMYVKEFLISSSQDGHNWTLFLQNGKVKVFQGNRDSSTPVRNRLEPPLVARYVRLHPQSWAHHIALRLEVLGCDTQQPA

| Substance | half-life of activated FVIII cofactor activity after thrombin activation (purified component Xase assay or clotting assay) (fold (against hFVIII)) [1] | half-life of activated FVIII (Xase assay, A2-domain stability) (fold (against WT hBFVIII)) [2] |
| --- | --- | --- |
| A2 domain of thrombin-activated cFVIII-BDD (from UniProt O18806 386-753) | 3 |  |
| A2 domain of thrombin-activated human FVIII-BDD R1645H (from UniProt P00451 392-759) |  | 3 |
